Assay results as given in patent EP4806918A1 (Nanjing Probio Biotech Co., Ltd., dated 2026).

Assays:
[1] = target: T1, mouse PD-L1 on a stable cell line (Probio, M00567) (mouse, UniProt Q9EP73 19-290); test: FACS on stable cell line expressing mouse PD-L1
T1 construct: whole, on cells; also called cells expressing mouse PD-L1

[2] = target: T2, recombinant human PD-L1-His protein (GenScript, Z03425) (human, UniProt Q9NZQ7 19-238); test: competition ELISA on coated human PD-L1-His; row antibody titrated, competitor biotinylated Tecentriq detected
T2 construct: Bought protein; also called recombinant human PD-L1 protein; human PD-L1 antigen protein; not shown: His tag
T2 sequence (Q9NZQ7 19-238 limits assumed, one chain of several): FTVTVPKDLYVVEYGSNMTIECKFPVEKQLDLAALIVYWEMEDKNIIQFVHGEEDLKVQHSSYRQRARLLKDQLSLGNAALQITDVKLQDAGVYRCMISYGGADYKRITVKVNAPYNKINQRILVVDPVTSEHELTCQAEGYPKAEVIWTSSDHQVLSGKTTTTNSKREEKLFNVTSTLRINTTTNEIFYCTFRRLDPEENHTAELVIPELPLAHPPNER

[3] = target: T2, recombinant human PD-L1-His protein …; test: indirect ELISA, plate coated with recombinant human PD-L1-His
[4] = target: T2, recombinant human PD-L1-His protein …; test: SPR, Biacore 8K, antibody Fc-captured, human PD-L1-His as analyte
[5] = target: T3, cynomolgus monkey PD-L1 on a stable cell line (Probio, M00573) (cynomolgus monkey, UniProt G7PSE7 19-290); test: FACS on stable cell line expressing cynomolgus monkey PD-L1
T3 construct: whole, on cells; also called cells expressing monkey PD-L1
T3 sequence (G7PSE7 entry or part of it, one chain of several): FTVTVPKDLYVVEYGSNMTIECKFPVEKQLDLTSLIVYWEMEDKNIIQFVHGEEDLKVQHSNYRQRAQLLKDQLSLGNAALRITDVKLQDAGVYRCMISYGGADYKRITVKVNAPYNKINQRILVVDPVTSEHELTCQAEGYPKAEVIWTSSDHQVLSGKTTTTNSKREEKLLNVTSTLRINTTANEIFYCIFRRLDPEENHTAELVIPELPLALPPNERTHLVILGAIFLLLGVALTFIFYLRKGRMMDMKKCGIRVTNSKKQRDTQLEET

[6] = target: T4, human PD-L1 on a stable cell line (Probio, RD00868) (human, UniProt Q9NZQ7 19-290); test: FACS on stable cell line expressing human PD-L1
T4 construct: whole, on cells; also called cells expressing human PD-L1
T4 sequence (Q9NZQ7 19-290): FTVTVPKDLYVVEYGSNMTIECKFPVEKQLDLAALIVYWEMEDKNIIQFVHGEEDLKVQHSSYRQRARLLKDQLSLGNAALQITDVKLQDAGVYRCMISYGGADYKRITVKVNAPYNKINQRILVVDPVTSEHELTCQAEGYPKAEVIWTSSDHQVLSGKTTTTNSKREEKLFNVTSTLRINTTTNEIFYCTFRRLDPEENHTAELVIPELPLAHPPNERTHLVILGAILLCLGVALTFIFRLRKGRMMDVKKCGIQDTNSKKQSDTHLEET

[7] = target: T2, recombinant human PD-L1-His protein …; test: competition ELISA on coated human PD-L1-His; row antibody titrated, competitor biotinylated Avelumab detected

T1 sequence (Q9EP73 19-290, one chain of several): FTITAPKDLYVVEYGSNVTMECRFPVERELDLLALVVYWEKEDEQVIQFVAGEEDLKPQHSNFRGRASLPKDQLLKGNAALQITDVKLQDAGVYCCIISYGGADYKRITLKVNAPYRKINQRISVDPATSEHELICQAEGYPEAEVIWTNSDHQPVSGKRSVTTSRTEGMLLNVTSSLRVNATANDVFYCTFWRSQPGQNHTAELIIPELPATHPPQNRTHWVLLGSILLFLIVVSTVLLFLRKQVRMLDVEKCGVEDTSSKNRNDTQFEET

Binder | EC50 [1] [nM] | IC50 [2] [nM] | EC50 [3] [nM] | Kd [4] [nM] | koff [4] [s⁻¹] | kon [4] [M⁻¹ s⁻¹] | EC50 [5] [nM] | EC50 [6] [nM] | IC50 [7] [nM]
AHP30019 fully human antibody (antibody, IgG1, V domains shown, not shown: a dimerising Fc or GST) VH: QVQLVQSGGGLVQPGGSLRLSCAGSGSSFSLAVMGWYRQAPGRQRELVGIISSAAGTNYADSVKGRFTISRDDAKNTLYLQMNSLTAEDTAVYYCWRGAVPGDPYGRWGQGTLVTVSS VL: EIVLTQSPLSLPVTLGQPASISCRSSQSLVHSDGNTYLNWFQQRPGQPPRRLIYEVSNRDSGVPDRFSGSGSGTDFTLKISRVEAEDVGVYYCMQGTHWPWTFGQGTKVEIK | 31.8 | 0.972 | 4.26 | 50.3 | 0.00146 | 29000 | 43.5 | 15.9 | 
AHP31319 fully human antibody (antibody, IgG1, V domains shown, not shown: a dimerising Fc or GST) VH: EVQLVQSGGGLVQPGGSLRLSCAGSGSSFSLAVMGWYRQAPGRQRELVGIISSAAGTNYADSVKGRFTISRDDAKNTLYLQMNSLTAEDTAVYYCWRGAVPGDPYGRWGQGTTVTVSS VL: EIVMTQSPGTLSLSPGEGATLSCRASQSVSNNYLAWYQQKHGQAPRLLIYGASSRATGIPDRFSGSGSGTDFTLTINRLEPEDFALYYCQQYGNSPGTFGQGTKVDIK | 0.746 | 96.1 | 0.173 | 5.08 | 0.000848 | 167000 | 1.34 | 0.977 | 8.97

Binders with a lower EC50 [5], results first:

EC50 [1] [nM] | IC50 [2] [nM] | EC50 [3] [nM] | Kd [4] [nM] | koff [4] [s⁻¹] | kon [4] [M⁻¹ s⁻¹] | EC50 [5] [nM] | EC50 [6] [nM] | IC50 [7] [nM] | Binder
0.184 | 2.81 | 0.275 | 0.305 | 0.000425 | 1.39e+06 | 0.725 | 0.193 | 1.34 | AHP30005 fully human antibody (antibody, IgG1, V domains shown, not shown: a dimerising Fc or GST) VH: QVQLVDSGGGLVQAGGSLSVSCAVSGRTALTYAVGWFRQAPGKERDFVAGINWSGSMTNYADSVKGRFTISRDNQKNTVYLQMNSLKPEDTAVYYCAATRTAITMPPQRDGVDYWGKGTTVTVSS VL: not shown
 |  |  |  |  |  | 0.894 |  |  | Avelumab (antibody, V domains shown) VH: EVQLLESGGGLVQPGGSLRLSCAASGFTFSSYIMMWVRQAPGKGLEWVSSIYPSGGITFYADTVKGRFTISRDNSKNTLYLQMNSLRAEDTAVYYCARIKLGTVTTVDYWGQGTLVTVSS VL: QSALTQPASVSGSPGQSITISCTGTSSDVGGYNYVSWYQQHPGKAPKLMIYDVSNRPSGVSNRFSGSKSGNTASLTISGLQAEDEADYYCSSYTSSSTRVFGTGTKVTVLG
